# Where no end group is shown, it is not given here.
# How the values were obtained:
# [1] = target: normal PCSK9 (WT) (Homo sapiens, UniProt Q8NBP7); assay: Cellular diI-LDL uptake in HepG2 cells with WT PCSK9; format: cell-based; conditions: HepG2, WT 1.2 ug/ml, pre-incubated 3 hrs at 37 C, dose dependent manner (FIG. 6)
# Procedure: (§1) After 16 h, dil-LDL (5 ug/ml) was added to the incubation mixtures. After 4 h, fluorescence was measured (Ex: 520 nm/Em: 575 nm; cutoff: 550 nm). Dil-LDL uptake is calculated as RFU corrected for the number of cells. The PCSK9 and −/+SRX55 [SEQ ID NO: 2] mixtures were pre-incubated for 3 hrs at 37 C prior to addition to the cells.
# (§2) LDL internalization was measured by uptake of a fluorescently tagged LDL molecule (diI-LDL) in the absence of exogenous PCSK9 (Cnt), in the presence of exogenous PCSK9 (normal PCSK9=WT, D374Y mutant PCSK9=DY), or in the presence of PCSK9 and a tested peptide (indicated as SRX##, or SRX if a single peptide results is shown in a graph). […]
# (§3) Peptide activity was assessed by culturing cells with: i) no SRX peptide/PCSK9 protein complex (control, Cnt); ii) PCSK9 protein; and iii) SRX peptide/PCSK9 complex. […]
# (§4) Cells were cultured using one of the combinations of conditions described in the preceding paragraph for 16 hours. After 16 hours, a quantity of diI-LDL (Low density lipoprotein coupled with 1,1′-dioctadecyl-3,3,3′,3′-tetramethylindocarbocyanine perchlorate) needed to bring the media concentration to 5 ug/mL of diI-LDL was added to the culture well and cells continued to be cultured under these new conditions for 4 additional hours. […] Fluorescence of the diI-LDL in the specimens were quantified using excitation at 530 nm and resulting emission at 580 nm. […]
# [2] = target: PCSK9-D374Y protein (Homo sapiens, UniProt Q8NBP7, D374Y); assay: Cellular diI-LDL uptake in HuH7 cells with PCSK9-D374Y; format: cell-based
# Procedure: (§5) HuH7 cells were incubated in a 96-well plate for a total of 20 h in the absence (Cnt) or presence of 0.5 μg/ml PCSK9-D374Y protein alone (DY) or mixed with 100 uM of various SRX peptides. After 16 h, dil-LDL (5 ug/ml) was added to the incubation mixtures. After 4 h, fluorescence was measured (Ex: 520 nm/Em: 575 nm; cutoff: 550 nm). Dil-LDL uptake is calculated as RFU corrected for the number of cells.
# as §5, with “PCSK9 GOF-D374Y” for “PCSK9-D374Y”, “increasing concentrations” for “100 uM”
# LDL internalization was measured by uptake of a fluorescently tagged LDL molecule (diI-LDL) in the absence of exogenous PCSK9 (Cnt), in the presence of exogenous PCSK9 (normal PCSK9=WT, D374Y mutant PCSK9=DY), or in the presence of PCSK9 and a tested peptide (indicated as SRX##, or SRX if a single peptide results is shown in a graph).
# Cells, such as HepG2, HuH7, FL83B or a cell line transfected with a short-hairpin PCSK9 knockdown sequence such as HepG2/shPCSK9, HuH7/shPCSK9, FL83B/shPCSK9, were seeded at 2×10^4 cells/well in a 96-well plate and cultured at 37 degC in RPMI+10% FBS. After approximately 24 hours, the cell media was aspirated off and replaced with RPMI+3-5 mg/mL LPDS (Lipoprotein Deficient Serum, Millipore) media for further experimentation. Benjannet et al., “Effects of the prosegment and pH on the activity of PCSK9: evidence for additional processing events” J Biol Chem. 285(52): 40965-40978 (2010).
# Peptide activity was assessed by culturing cells with: i) no SRX peptide/PCSK9 protein complex (control, Cnt); ii) PCSK9 protein; and iii) SRX peptide/PCSK9 complex. Various permutations of these experimental conditions were also used, including: i) the addition of wild type PCSK9 (WT); ii) a mutant PCSK9 (e.g., D374Y mutant PCSK9, DY); iii) various SRX peptides and/or PCSK9 at the same concentration and/or combinations; iv) various SRX peptides and/or PCSK9 at different concentrations and/or combinations; v) the use of different cells, as mentioned above, with or without a transfected short-hairpin sequence; vi) a pre-incubation of the PCSK9 and SRX peptide (e.g., 1, hour, 2 hours, 3 hours, 4 hours etc.); vii) various temperatures including, but not limited to, body temperature (e.g., 37° C.), supraphysiologic temperature (e.g., 39° C.); and viii) with/without agitation (e.g., shaker or gentle periodic vortexing).
# Cells were cultured using one of the combinations of conditions described in the preceding paragraph for 16 hours. After 16 hours, a quantity of diI-LDL (Low density lipoprotein coupled with 1,1′-dioctadecyl-3,3,3′,3′-tetramethylindocarbocyanine perchlorate) needed to bring the media concentration to 5 ug/mL of diI-LDL was added to the culture well and cells continued to be cultured under these new conditions for 4 additional hours. At the end of the 4-hour incubation period (20 total hours of cell culture), the cellular uptake was halted with the addition of 4% formaldehyde in 10 uM Hoechst 33342 in a solvent such as deionized autoclaved water or PBS, and specimens were incubated at 20° C. for 20 minutes. Cell specimens were rinsed twice with PBS and then fluorescence measured with excitation at 360 nm and emission detected at 460 nm to measure DNA content. Cell specimens were then be incubated with a 0.1% SDS in a 0.1 N NaOH solution while being shaken for 10 minutes. Fluorescence of the diI-LDL in the specimens were quantified using excitation at 530 nm and resulting emission at 580 nm.
# Fluorescence measurements of diI-LDLR were normalized to estimated cell numbers, determined from the Hoechst fluorescence. […]
# [3] = target: D374Y PCSK9 (DY) (Homo sapiens, UniProt Q8NBP7, D374Y); assay: Cellular diI-LDL uptake in FL-83B cells with D374Y PCSK9; format: cell-based, mouse; conditions: FL83B, D374Y 0.6 ug/ml, pre-incubated 3 hrs at 37 C, dose dependent manner (FIG. 7)
# Procedure: as §1, §2, §3, §4
# Chain of PCSK9-D374Y protein (Q8NBP7 153-692 D374Y): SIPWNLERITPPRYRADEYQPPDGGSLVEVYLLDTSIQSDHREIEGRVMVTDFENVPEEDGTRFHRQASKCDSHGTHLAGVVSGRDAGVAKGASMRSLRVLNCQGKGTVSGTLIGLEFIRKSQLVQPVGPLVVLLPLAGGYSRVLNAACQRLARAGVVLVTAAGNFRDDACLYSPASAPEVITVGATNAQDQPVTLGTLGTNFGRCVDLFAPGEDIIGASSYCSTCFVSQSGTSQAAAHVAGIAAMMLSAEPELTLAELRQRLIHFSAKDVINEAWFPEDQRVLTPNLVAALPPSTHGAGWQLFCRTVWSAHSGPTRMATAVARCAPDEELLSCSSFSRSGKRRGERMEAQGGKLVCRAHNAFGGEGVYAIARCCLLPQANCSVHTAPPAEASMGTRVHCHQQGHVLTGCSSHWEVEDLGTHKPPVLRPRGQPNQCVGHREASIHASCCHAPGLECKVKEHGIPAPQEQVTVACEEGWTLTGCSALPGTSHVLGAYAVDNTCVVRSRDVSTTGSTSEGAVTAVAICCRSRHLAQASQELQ
# Chain of normal PCSK9 (WT) (Q8NBP7 153-692): as the sequence (Q8NBP7 153-692 D374Y) above, with Y222D counted along it
# Chain of D374Y PCSK9 (DY) (Q8NBP7 153-692 D374Y): as the sequence (Q8NBP7 153-692 D374Y) above
substance,measurement,setting,value
Val-Tyr-Val-Arg-Phe-Trp (VYVRFW; not fully specified (C-terminus); printed as Val-Tyr-Val-Arg-Phe-Trp) [Compound 1],LDL internalization (dil-LDL % uptake vs Cnt),[1],positively modulated (increased)
same,LDL internalization (dil-LDL % uptake vs Cnt),"[2]; HuH7, 0.5 μg/ml PCSK9-D374Y, 100 uM peptide (FIG. 3)",positively modulated (increased)
same,LDL internalization (dil-LDL % uptake vs Cnt),"[2]; HuH7, 0.5 μg/ml PCSK9 GOF-D374Y, increasing concentrations of peptide (FIG. 4)",positively modulated (increased)
same,dose dependence of positive modulation of LDL internalization,"[2]; HuH7, PCSK9 GOF-D374Y (FIG. 4)",positive modulation in a dose dependent manner
same,percent inhibition (dil-LDL uptake),"[2]; HuH7, PCSK9 GOF-D374Y, peptide at 11.1 uM (FIG. 4 bottom panel)",~0%
same,LDL internalization (dil-LDL % uptake vs Cnt),[3],positively modulated (increased)

# — patent publication US10287317B2, “Proprotein convertase subtilisin kexin type 9 (PCSK9) allosteric binding ligands to modulate serum low density lipoprotein (LDL) levels” (SRX Cardio, LLC, priority 2013, dated 2019)
